The target of experiment [1] is T1, Biotinylated CD3-specific binding domain SEQ ID NO: 13 (biotinylated (site not stated)).
T1 construct: Ligand on the neutravidin (NLC) SPR chip; The same domain is the CD3-specific domain of TCE #1
T1 chain: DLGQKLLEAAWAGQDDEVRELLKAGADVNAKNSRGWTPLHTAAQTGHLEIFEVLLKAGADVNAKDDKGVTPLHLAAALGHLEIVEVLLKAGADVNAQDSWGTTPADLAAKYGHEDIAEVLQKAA
Description: SPR (comparable assays).

Experiment [2] deals with T2, Biotinylated CD3-specific binding domain SEQ ID NO: 14 (biotinylated (site not stated)).
T2 construct: Ligand on the neutravidin (NLC) SPR chip
T2 chain: T1 chain with D65N, G68R, Q97R, E114Q
Description: SPR (comparable assays).

The target in experiment [3] is T3, TCE #2.
T3 construct: also called α-HSA×α-CD123×α-CD33×α-CD3 T-cell engager; TCE (with a half-life extending moiety)
T3 chain: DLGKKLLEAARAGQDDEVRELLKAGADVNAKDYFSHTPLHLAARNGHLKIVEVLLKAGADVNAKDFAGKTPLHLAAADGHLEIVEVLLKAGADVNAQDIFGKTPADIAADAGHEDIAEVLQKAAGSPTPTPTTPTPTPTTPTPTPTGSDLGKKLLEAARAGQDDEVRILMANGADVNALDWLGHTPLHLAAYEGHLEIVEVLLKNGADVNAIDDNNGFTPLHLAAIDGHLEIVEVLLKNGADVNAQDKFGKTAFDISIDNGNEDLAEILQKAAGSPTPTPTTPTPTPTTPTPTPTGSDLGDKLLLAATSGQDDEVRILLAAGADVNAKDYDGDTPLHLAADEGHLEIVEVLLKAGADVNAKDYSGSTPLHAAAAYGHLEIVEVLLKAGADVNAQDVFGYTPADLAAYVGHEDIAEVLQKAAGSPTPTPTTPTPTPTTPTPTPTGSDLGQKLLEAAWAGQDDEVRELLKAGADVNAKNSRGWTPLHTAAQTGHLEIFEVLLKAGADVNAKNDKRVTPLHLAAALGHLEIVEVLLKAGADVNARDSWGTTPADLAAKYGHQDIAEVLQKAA
Put plainly: not stated (affinity to the CD3 binding domain of TCE #2); Binder #10, 1 pM or lower.

In experiment [4] the target is T1, Biotinylated CD3-specific binding …. Description: calculated from SPR koff (ln2/koff). As to the method: (§1) Further SPR data were generated for Binders #1 to #9 (as listed in Example 1 above), binding to biotinylated CD3-specific binding domains having SEQ ID NOs: 13 and 14, respectively, on the chip. […] The blocking half-life (T_{1/2}) was then calculated.
For experiment [5], the target named is T2, Biotinylated CD3-specific binding …. Put plainly: calculated from SPR koff (ln2/koff). As for the experimental part:
as §1

For experiment [6], the target named is T3, TCE #2. Put plainly: not stated (affinity to the CD3 effector moiety of TCE #2).
Experiment [7] concerns the target T1, Biotinylated CD3-specific binding …. Put plainly: SPR (ProteOn XPR36), 33 C, multi-trace; biotinylated ligand on chip, binder as analyte. As for the experimental part:
as §1

For experiment [8], the target named is T2, Biotinylated CD3-specific binding …. The description is as above. As for the experimental part: as §1

Positions count from the first letter of the chain named.

By Kd is commonly meant a measure of binding affinity in units of concentration. Low readings indicate higher affinity, high ones lower affinity. Broadly, the koff is the first-order rate constant of dissociation. A lower koff goes with slow dissociation. As usually defined, the kon is a measure of how fast the partners come together.

B1: Binder #10 (designed binder)
chain: MRGSHHHHHHGSDLGKKLLQAARAGQLDEVRELLKAGADVNAKDHYGWTPLHLAASEGHLEIVEVLLKAGADVNAKDWIGWTPLHLAASFGHLEIVEVLLKAGADVNAKDVSGKTPLHIAARQGHLEIVEVLLKAGADVNAQDKSGKTPADLAARAGHQDIAEVLQKAA
Consider B1, for which the binding result in experiment [1] and in experiment [2] was “binds” throughout. This molecule also displayed a Kd in experiment [3] not above 0.001 nM.

B2: Binder #1 (designed binder)
chain: MRGSHHHHHHGSDLGKKLLQAARAGQLDEVRELLKAGADVNAKDFKGLTPLHLAAAHGHLEIVEVLLKAGADVNAKDVYGWTPLHIAAASGHLEIVEVLLKAGADVNAKDWLGITPLHLAASHGHLEIVEVLLKAGADVNAQDKSGKTPADLAARAGHQDIAEVLQKAA
notes: expressed in E. coli and purified by its His-tag
As to B2, the “Blocking T1/2” value in experiment [4] was 3.1 h; in experiment [5], 7.1 h. The dissociation constant (Kd) in experiment [6] is approximately 0.04 nM; in experiment [7], 0.04 nM; in experiment [8] it was 0.034 nM. The koff in experiment [7] was found to be 6.2e-05 s⁻¹; in experiment [8], 2.7e-05 s⁻¹. The kon in experiment [7] came to 1.54e+06 M⁻¹ s⁻¹; in experiment [8], 790000 M⁻¹ s⁻¹.

The values are drawn from patent US20240108746A1 (Molecular Partners, published 2024).
